This is an account of results in article PMC6915727.

This assay has as its target human Toll-like receptor 5 (TLR5) in stably transfected HEK293 cells (TLR5+) (human) (UniProt O60602).
UniProt O60602, sequence (O60602 21-858): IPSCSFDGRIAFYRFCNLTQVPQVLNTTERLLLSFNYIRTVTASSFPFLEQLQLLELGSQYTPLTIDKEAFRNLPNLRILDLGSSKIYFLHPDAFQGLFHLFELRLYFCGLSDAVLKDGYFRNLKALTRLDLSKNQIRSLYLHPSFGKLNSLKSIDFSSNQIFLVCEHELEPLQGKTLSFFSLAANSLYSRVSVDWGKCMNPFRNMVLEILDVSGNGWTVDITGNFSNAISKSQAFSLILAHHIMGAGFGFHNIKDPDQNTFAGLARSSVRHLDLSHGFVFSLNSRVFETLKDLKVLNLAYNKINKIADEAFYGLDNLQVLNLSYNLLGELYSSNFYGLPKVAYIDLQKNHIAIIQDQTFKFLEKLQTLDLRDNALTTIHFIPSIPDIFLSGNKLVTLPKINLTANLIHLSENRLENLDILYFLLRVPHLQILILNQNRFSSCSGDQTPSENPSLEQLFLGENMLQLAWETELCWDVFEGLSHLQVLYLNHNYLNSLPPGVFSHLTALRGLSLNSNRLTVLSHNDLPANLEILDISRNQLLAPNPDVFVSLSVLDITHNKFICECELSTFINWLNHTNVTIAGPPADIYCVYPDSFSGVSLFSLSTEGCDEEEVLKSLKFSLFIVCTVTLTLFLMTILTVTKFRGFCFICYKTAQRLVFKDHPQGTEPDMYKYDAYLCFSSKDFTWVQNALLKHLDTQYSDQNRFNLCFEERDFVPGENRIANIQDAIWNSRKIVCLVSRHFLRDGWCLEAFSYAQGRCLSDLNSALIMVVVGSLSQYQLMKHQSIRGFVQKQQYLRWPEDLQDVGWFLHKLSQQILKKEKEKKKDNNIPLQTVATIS

Regarding “recombinant CagL wild type (CagL^WT), C-terminal His-tag fusion (natural protein)”, the NF-κB luciferase activity in TLR5+ HEK293 cells, dose-response of recombinant CagL WT (EC50) is 173 nM.
